Experimental data from patent US20070020327A1.
Where two headings read alike, the source gives them in different places.

Columns and labels:
[1] = molecular target: HLA-A*0201 (human); assay: competitive inhibition of 125I-labelled standard peptide binding to purified HLA
[2] = molecular target: HLA-A*0202 (human); assay: as above
[3] = molecular target: HLA-A*0203 (human); assay: as above
[4] = molecular target: HLA-A*0206 (human); assay: as above
[5] = molecular target: HLA-A*6802 (human); assay: as above
[6] = molecular target: HLA-A*0202 (human); assay: competition binding to purified HLA, 125I-labelled standard peptide, gel filtration; ratio = IC50 standard / IC50 test peptide
[7] = molecular target: HLA-A*0201 (human); assay: inhibition of 125I probe peptide binding to purified HLA, gel filtration; ratio = IC50 standard/IC50 test
[8] = molecular target: HLA-A*0202 (human); assay: as above
[9] = molecular target: HLA-A*0206 (human); assay: as above
[10] = molecular target: HLA-A*6802 (human); assay: as above
[11] = molecular target: HLA-A*1101 (human); assay: competition with a 125I-labelled probe peptide for purified HLA-A*1101, gel filtration; value relative to the standard peptide
[12] = molecular target: HLA-A*0201 (human); assay: competition with 125I-labelled standard peptide for purified HLA, gel filtration; ratio = IC50 standard / IC50 test peptide; conditions: remark: other sources report otherwise
[13] = molecular target: HLA-A*0202 (human); assay: as above; conditions: remark: other sources report otherwise
[14] = molecular target: HLA-A*0203 (human); assay: as above; conditions: remark: other sources report otherwise
[15] = molecular target: HLA-A*0206 (human); assay: as above; conditions: remark: other sources report otherwise
[16] = molecular target: HLA-A*0201 (human); assay: competition for purified HLA with 125I-labelled standard peptide 941.01 [..] as competitor, gel filtration; conditions: scale: ratio
[17] = molecular target: HLA-A*0202 (human); assay: as above; conditions: scale: ratio
[18] = molecular target: HLA-A*0203 (human); assay: as above; conditions: scale: ratio
[19] = molecular target: HLA-A*0206 (human); assay: as above; conditions: scale: ratio
[20] = molecular target: HLA-A*1101 (human); assay: inhibition of 125I-labeled probe peptide binding to purified HLA-A*1101, gel filtration; relative to standard peptide 940.06
[21] = molecular target: HLA-A*0201 (human); assay: competition with 125I-labeled probe peptide for purified HLA, gel filtration
[22] = molecular target: HLA-A*0202 (human); assay: as above
[23] = molecular target: HLA-A*0203 (human); assay: as above
[24] = molecular target: HLA-A*0206 (human); assay: as above
[25] = molecular target: HLA-A*6802 (human); assay: as above
[26] = molecular target: HLA-A*0201 (human); assay: competition with 125I-labelled standard peptide 941.01 for purified HLA-A*0201, gel filtration
[27] = molecular target: HLA-A*0202 (human); assay: competition with 125I-labelled standard peptide 941.01 for purified HLA-A*0202, gel filtration
[28] = molecular target: HLA-A*0203 (human); assay: competition with 125I-labelled standard peptide 941.01 for purified HLA-A*0203, gel filtration
[29] = molecular target: HLA-A*0206 (human); assay: competition with 125I-labelled standard peptide 941.01 for purified HLA-A*0206, gel filtration
[30] = molecular target: HLA-A*6802 (human); assay: competition with 125I-labelled standard peptide 1072.34 for purified HLA-A*6802, gel filtration
[31] = molecular target: HLA-A*0101 (human); assay: competition with 125I-labelled standard peptide for purified HLA-A*0101, gel filtration
[32] = molecular target: HLA-A*1101 (human); assay: competition with 125I-labelled standard peptide for purified HLA-A*1101, gel filtration; ratio to the A*1101 standard peptide 940.06 [..] (6.0 nM)
[33] = molecular target: HLA-A*0202 (purified HLA class I molecule) (human); assay: competition with 125I-labelled standard peptide for purified HLA, gel filtration
[34] = molecular target: HLA-A*0201 (purified HLA class I molecule) (human); assay: as above
[35] = molecular target: HLA-A*0206 (purified HLA class I molecule) (human); assay: as above
[36] = remark: other sources report otherwise

LVCNGVLQGV (modifications not checked) [Peptide 1418.55, … (PSA.213.V10)]
IC50 [1]: 10 nM
IC50 [2]: 2.9 nM
IC50 [3]: 12 nM
IC50 [4]: 5.6 nM
IC50 [5]: 3.5 nM

DTGQRVPV (modifications not checked) [DTGQRVPV (Kallikrein, position 85, 8 amino acids)]
binding affinity ratio [6]: 0.0001

ALPEKPAVYT (modifications not checked) [… (Kallikrein, position 235)]
binding affinity ratio [7]: 0.0003
binding affinity ratio [8]: 0.005
binding affinity ratio [9]: 0.0005
binding affinity ratio [10]: -0.0001

ETYELVEKFY (modifications not checked) [PSM peptide … (position 557, 10 amino acids)]
binding affinity ratio (IC50 of standard peptide / IC50 of test peptide) [11]: 0.0002

ESYKHEQVY (modifications not checked) [PAP peptide … (position 95, 9 amino acids)]
binding affinity ratio (IC50 of standard peptide / IC50 of test peptide) [11, 36]: 0.0002

PTQEPALGTT (modifications not checked) [PSA peptide …, position 138, 10 amino acids]
binding affinity ratio (ratio to standard peptide) [12]: 0.0084
binding affinity ratio (ratio to standard peptide) [13]: 0.022
binding affinity ratio (ratio to standard peptide) [14]: 0.052
binding affinity ratio (ratio to standard peptide) [15]: 0.0037

IALSVGCT (modifications not checked) [IALSVGCT (Kallikrein position 8, 8-mer)]
binding affinity ratio [16]: 0.0001
binding affinity ratio [17]: -0.0002
binding affinity ratio [18]: -0.0001
binding affinity ratio [19]: -0.0001

TLSVTWIGV (modifications not checked) [Peptide 60.0217, … (PSA.5.V9)]
IC50 [2, 36]: 4.9 nM
IC50 [3, 36]: 40 nM
IC50 [4, 36]: 712 nM
IC50 [5, 36]: 229 nM

DALFDIESK (modifications not checked) [PSM peptide … (position 710, 9 amino acids)]
binding affinity ratio (IC50 of standard peptide / IC50 of test peptide) [20]: 0.0002

DAVKVMDL (modifications not checked) [DAVKVMDL (PSA, position 130, 8 amino acids)]
binding affinity ratio [6]: 0.0003

IALSVGCTGAV (modifications not checked) [… (Kallikrein position 8, 11-mer)]
binding affinity ratio [16, 36]: 0.0009
binding affinity ratio [17, 36]: 0.0032
binding affinity ratio [18, 36]: 0.027
binding affinity ratio [19, 36]: 0.01

ATFDIESKV (modifications not checked) [Peptide 1418.30 … (PSM.711.T2)]
IC50 [21]: 238 nM
IC50 [22]: 27 nM
IC50 [23]: 44 nM
IC50 [24]: 82 nM
IC50 [25]: 258 nM

RAYSEKVT (modifications not checked) [RAYSEKVT (Kallikrein, position 186)]
binding affinity ratio (IC50 of standard peptide / IC50 of test peptide) [26]: -0.0001
binding affinity ratio (IC50 of standard peptide / IC50 of test peptide) [27]: -0.0001
binding affinity ratio (IC50 of standard peptide / IC50 of test peptide) [28]: 0.0003
binding affinity ratio (IC50 of standard peptide / IC50 of test peptide) [29]: 0.0001
binding affinity ratio (IC50 of standard peptide / IC50 of test peptide) [30]: -0.0001

RNETQHEPY (modifications not checked) [… (PAP, position 332)]
binding affinity ratio (IC50 of standard peptide / IC50 of test peptide) [31]: 0.0002
binding affinity ratio (IC50 of standard peptide / IC50 of test peptide) [32]: 0.0002

AAHCLKKNSQV (modifications not checked) [… (Kallikrein, position 63)]
binding affinity ratio [7, 36]: 0.0003
binding affinity ratio [8, 36]: 0.0006
binding affinity ratio [9, 36]: 0.0001

RAVCGGVL (modifications not checked) [RAVCGGVL (PSA, position 43)]
binding affinity ratio (IC50 of standard peptide / IC50 of test peptide) [26]: -0.0001
binding affinity ratio (IC50 of standard peptide / IC50 of test peptide) [27]: -0.0001
binding affinity ratio (IC50 of standard peptide / IC50 of test peptide) [28]: 0.0003
binding affinity ratio (IC50 of standard peptide / IC50 of test peptide) [29]: -0.0001
binding affinity ratio (IC50 of standard peptide / IC50 of test peptide) [30]: -0.0001

VLAGGFFLV (modifications not checked) [Peptide 1389.20 … (PSM.27.V9)]
IC50 [21]: 26 nM
IC50 [22]: 0.4 nM
IC50 [23]: 5 nM
IC50 [24]: 57 nM

CSPSCPLER (modifications not checked) [PAP peptide … (position 347, 9 amino acids)]
binding affinity ratio (IC50 of standard peptide / IC50 of test peptide) [20]: 0.0006

PTQEPALGTT (modifications not checked) [Kallikrein (hK2) peptide …, position 142, 10 amino acids]
binding affinity ratio (ratio to standard peptide) [12]: 0.0084
binding affinity ratio (ratio to standard peptide) [13]: 0.022
binding affinity ratio (ratio to standard peptide) [14]: 0.052
binding affinity ratio (ratio to standard peptide) [15]: 0.0037

LVLAGGFFL (modifications not checked) [PSM peptide … (position 26, 9 amino acids)]
binding affinity ratio (IC50 of standard peptide / IC50 of test peptide) [33, 36]: 0.003

MMNDQLMFL (modifications not checked) [Peptide 1126.01 … (PSM.663)]
IC50 [22]: 0.8 nM
IC50 [23]: 1.7 nM
IC50 [24]: 7.6 nM
IC50 [25]: 195 nM

NLFEPEDT (modifications not checked) [Kallikrein (hK2) peptide NLFEPEDT (position 79, 8 amino acids)]
binding affinity ratio (IC50 of standard peptide / IC50 of test peptide) [34]: 0.0002
binding affinity ratio (IC50 of standard peptide / IC50 of test peptide) [35]: -0.0001

RLSEPAKIT (modifications not checked) [… (Kallikrein, position 125)]
binding affinity ratio (IC50 of standard peptide / IC50 of test peptide) [26]: -0.0001
binding affinity ratio (IC50 of standard peptide / IC50 of test peptide) [27]: -0.0002
binding affinity ratio (IC50 of standard peptide / IC50 of test peptide) [28]: 0.0009
binding affinity ratio (IC50 of standard peptide / IC50 of test peptide) [29]: -0.0001
binding affinity ratio (IC50 of standard peptide / IC50 of test peptide) [30]: -0.0002

ALPEKPAV (modifications not checked) [ALPEKPAV (Kallikrein, position 235)]
binding affinity ratio [7, 36]: 0.0009
binding affinity ratio [8, 36]: 0.02
binding affinity ratio [9, 36]: 0.0001
binding affinity ratio [10, 36]: -0.0001

HLLSNDMCA (modifications not checked) [… (Kallikrein position 177, 9-mer)]
binding affinity ratio [16]: 0.002
binding affinity ratio [18]: 0.0005
binding affinity ratio [19]: 0.0009

LMLLRLSEPA (modifications not checked) [Peptide 63.0014, … (PSA.117)]
IC50 [1, 36]: 200 nM
IC50 [5, 36]: 5000 nM

MLCAGLWT (modifications not checked) [Kallikrein (hK2) peptide MLCAGLWT (position 196, 8 amino acids)]
binding affinity ratio (IC50 of standard peptide / IC50 of test peptide) [33]: 0.002
binding affinity ratio (IC50 of standard peptide / IC50 of test peptide) [35]: 0.0001
